Molecular target: CD3 (human)

lymphokine production (IL-2, ng/ml) by T cell clone 827 with CD3 + TPA: 10.6 ng/mL
Substance: anti-CD3 mAb SPV-T3b (antibody)

— patent US6106823
